Test results published in publication PMC3034019 (The EMBO Journal, 2011).

Key:
[1] = molecular target: Oregon-Green-labelled actin monomers (OG-actin) (UniProt P68135 1-377, Oregon-Green (OG) label, position not stated); assay: stopped-flow fluorescence kinetics
[2] = molecular target: Oregon-Green-labelled actin monomers (OG-actin) (UniProt P68135 1-377, Oregon-Green (OG) label, position not stated); assay: other fluorescence titration

Row | Binder | kon [1] [M⁻¹ s⁻¹] | Kd [2] [nM]
1 | EVH2 domain of Dictyostelium discoideum VASP (DdEVH2) (domain or fragment) GRNALLGSIENFSKGGLKKTVTVDKSAGVPTKTTPSANSAASNAGSEPSSGGSTPAPAPKSSGGGGGGDLMAEVMAKRAKMKAAASQPKEESSAPTPAPTPAPTPAPTPSSTSFKPPQSFSKPATKTAAANKPPSPSLSAPLPSTVANEDLQSLKEEILTEVRKEIQKAKDEILEAIRASQH | 5.3e+07 | 
2 | GLAAAIAGAKLRKVSK [hGAB peptide (G-actin-binding site of human VASP)] |  | 10300
3 | GRNALLSDISKGKKLKKTVT [WIP-WH2-peptide (WH2 core motif of WASP-interacting protein)] |  | 840
4 | GRNALLGSIENFSKGGLKKTVT [DdGAB peptide (G-actin-binding site of Dictyostelium discoideum VASP)] |  | 630
